Patent publication US7642046B2, “Method for monitoring recruitment of proteins to the intracellular domain of a receptor in intact cells” (priority 2001, dated 2010)

Assays:
CD40 = molecular target: T1, CD40 (Homo sapiens, UniProt P25942); experiment: TRAF binding to CD40 in cell lysate: separately expressed extracts mixed 1:1, ELISA; conditions: extracts mixed 1:1, over night at 4° C.
T1 construct: expressed in transfected cells; host or cells: HEK 293T
From the text: To measure TRAF recruitment to CD40 many studies relied on experimental systems that probe TRAF binding to synthetic peptides or soluble fragments of the CD40 signaling domain (Rothe et al. 1994, Hu et al. 1994, Cheng et al. 1995, Mosialos et al. 1995, Ishida et al. it 1996, Ishida et al. b 1996, Boucher et al. 1997, Pullen et al. 1998 and Pullen et al. 1999). […] Therefore, recruitment of TRAF1 and TRAF2 by CD40 intact cells versus cell lysate was compared. In the experiment, CD40 and TRAF1 or TRAF2 were co-expressed or expressed separately in 293T cells (constructs described in example 7 below). Plasmid concentrations and ratios were identical to the experiment described in example 1. After 27 hours, the cells were detergent lysed as in example 1. The extracts from 293T cells expressing only CD40 or the TRAF of interest were mixed at a 1:1 ratio and incubated over night at 4° C. Extracts expressing both CD40 and the TRAF of interest were kept under identical conditions. Then the samples were incubated on microtiter plates coated with a mAb against the extra-cellular domain of CD40 as described in example 1. After a washing step, CD40 bound TRAFs were detected with anti TRAF antibodies (example 1). Quantitation of TRAF recruited to CD40 was carried out as described in the example 3 below.

LTβR = molecular target: T2, LTβR (Homo sapiens, UniProt P25942+P36941); experiment: Recruitment assay with hybrid receptor (CD40 extracellular domain, LTβR transmembrane and intracellular domain); assay type: cell-based; conditions: 293T cells, CD40 as relative standard
T2 construct: cDNA fragments encoding for the transmembrane and cytoplasmic domains of the LTβR, TACI, the p75TNF receptor, CD27; expressed in transfected cells; host or cells: 293T
T2 sequence (P25942+P36941 fused): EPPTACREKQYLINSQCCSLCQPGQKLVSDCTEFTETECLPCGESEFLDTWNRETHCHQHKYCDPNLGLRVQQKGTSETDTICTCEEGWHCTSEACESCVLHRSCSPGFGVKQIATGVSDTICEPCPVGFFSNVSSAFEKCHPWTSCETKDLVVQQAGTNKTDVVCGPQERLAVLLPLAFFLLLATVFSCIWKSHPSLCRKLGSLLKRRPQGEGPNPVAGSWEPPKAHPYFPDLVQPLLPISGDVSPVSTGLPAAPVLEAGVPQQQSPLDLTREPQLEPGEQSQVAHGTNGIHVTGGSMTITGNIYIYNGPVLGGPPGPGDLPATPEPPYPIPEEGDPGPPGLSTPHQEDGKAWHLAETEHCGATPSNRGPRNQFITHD
Description: (§1) The recruitment of TRAF to CD40 can be quantitatively measured using the assay described in example 1. For that purpose, the assay conditions were adjusted in such a way that TRAF expression was in significant excess over the expression of CD40. This was the case when the TRAF expression plasmid was used at a two to three fold excess over the CD40 expression plasmid. The CD40 bound TRAF concentration was measured as described in example 1. A reference extract containing CD40/TRAF complexes served as a standard in each assay. This standard extract consisted of a large pool extract from cells that had been co-transfected with the plasmids encoding CD40/TRAF1, CD40/TRAF2, CD40/TRAF3, CD40/TRAF5 and CD40/TRAF6. The extracts were tested for the presence of CD40/TRAF complexes and the complex concentrations in each extract were arbitrarily defined as 1000 U/ml. The extracts were frozen in small aliquots and kept at −80° C. until further use. By comparing unknown samples to these extracts, it was possible to determine the relative CD40-TRAF complex concentrations in arbitrary units. The necessary normalization for sample-to-sample variations in the CD40 expression was calculated with the following formula: […]
Recruitment of various TRAFs to receptors different to CD40, was tested by the recruitment assay described in example 1 by transforming cells with expression plasmids encoding hybrids receptors comprising the extracellular domain of CD40 and transmembrane and intracellular domain of anyone of the following receptors: BCMA (Madry et al. 1998 and Hatzoglou et al. 2000) the LTβR-receptor (Mosialos et al. 1995, Crowe et al. 1994, Nakano et al. 1996), TACI (von Bulow et al. 1997, Xia et al. 2000) the p75TNFR (Rothe et al. 1994) and the CD27 (Gravestein et al. 1998, Akiba et al. 1998) (for details of constructs see example 7). Measurement of TRAF recruitment to the signalling domains of BCMA the LTβR-receptor TACI the p75TNFR or the CD27 was carried out by co-transfecting 293T cells with a plasmid encoding anyone of the above hybrid receptors together with a plasmid encoding TRAF and measurement of the TRAF/Receptor complex using the ELISA sandwich described in example 1 and the quantitation as described in example 3. The assay with the hybrid receptors is schematically represented in FIG. 4A. The results shown in FIG. 4B indicate that, using the assay monitoring recruitment in intact cells, any TRAF recruiting receptor of the TNF/NGF family can be examined with the same antibody sandwich assay described in example 1 and the amount of TRAF-receptor/CD40 hybrid complex can be monitored as described in example 3. […] Recruitment of TRAF3 to all the receptors tested is similar. […]

p75TNFR = molecular target: T3, p75TNFR (Homo sapiens, UniProt P20333+P25942); experiment: Recruitment assay with hybrid receptor (CD40 extracellular domain, p75TNFR transmembrane and intracellular domain); assay type: cell-based; conditions: 293T cells, CD40 as relative standard
T3 construct: cDNA fragments encoding for the transmembrane and cytoplasmic domains of the LTβR, TACI, the p75TNF receptor, CD27; expressed in transfected cells; host or cells: 293T
T3 sequence (P25942+P20333 fused): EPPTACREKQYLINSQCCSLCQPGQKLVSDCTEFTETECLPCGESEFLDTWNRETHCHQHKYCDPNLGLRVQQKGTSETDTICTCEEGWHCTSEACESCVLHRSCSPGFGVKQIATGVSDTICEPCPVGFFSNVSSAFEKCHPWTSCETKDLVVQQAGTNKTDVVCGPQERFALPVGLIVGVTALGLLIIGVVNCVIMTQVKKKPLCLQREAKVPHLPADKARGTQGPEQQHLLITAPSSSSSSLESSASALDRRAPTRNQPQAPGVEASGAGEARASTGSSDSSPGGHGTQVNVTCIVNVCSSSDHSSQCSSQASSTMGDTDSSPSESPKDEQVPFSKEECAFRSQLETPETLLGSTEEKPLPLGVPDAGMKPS
Description: as §1, with “By comparing unknown samples to these extracts, it was possible to determine the relative CD40-TRAF complex concentrations in arbitrary units.” left out
Recruitment of various TRAFs to receptors different to CD40, was tested by the recruitment assay described in example 1 by transforming cells with expression plasmids encoding hybrids receptors comprising the extracellular domain of CD40 and transmembrane and intracellular domain of anyone of the following receptors: BCMA (Madry et al. 1998 and Hatzoglou et al. 2000) the LTβR-receptor (Mosialos et al. 1995, Crowe et al. 1994, Nakano et al. 1996), TACI (von Bulow et al. 1997, Xia et al. 2000) the p75TNFR (Rothe et al. 1994) and the CD27 (Gravestein et al. 1998, Akiba et al. 1998) (for details of constructs see example 7). Measurement of TRAF recruitment to the signalling domains of BCMA the LTβR-receptor TACI the p75TNFR or the CD27 was carried out by co-transfecting 293T cells with a plasmid encoding anyone of the above hybrid receptors together with a plasmid encoding TRAF and measurement of the TRAF/Receptor complex using the ELISA sandwich described in example 1 and the quantitation as described in example 3. […]

T1 sequence (P25942 21-277): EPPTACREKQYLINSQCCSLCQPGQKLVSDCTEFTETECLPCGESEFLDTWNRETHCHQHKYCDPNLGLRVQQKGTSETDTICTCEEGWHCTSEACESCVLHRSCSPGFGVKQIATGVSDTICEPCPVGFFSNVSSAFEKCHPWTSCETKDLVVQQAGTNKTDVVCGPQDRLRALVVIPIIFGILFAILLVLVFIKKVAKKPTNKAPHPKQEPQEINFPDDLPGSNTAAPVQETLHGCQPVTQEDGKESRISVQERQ

Molecule	binding to CD40 in cell lysate (CD40)	recruitment to LTβR, folds higher than recruitment to CD40 (LTβR)	recruitment to p75TNFR, folds higher than recruitment to CD40 (p75TNFR)
TRAF1: TNF receptor associated factor 1, adaptor protein overexpressed in 293T cells from pcDNA3 (protein, UniProt Q13077 1-416, looked up, full-length, TNF receptor associated factor 1, adaptor protein overexpressed in 293T cells from pcDNA3) MASSSGSSPRPAPDENEFPFGCPPTVCQDPKEPRALCCAGCLSENPRNGEDQICPKCRGEDLQSISPGSRLRTQEKAHPEVAEAGIGCPFAGVGCSFKGSPQSVQEHEVTSQTSHLNLLLGFMKQWKARLGCGLESGPMALEQNLSDLQLQAAVEVAGDLEVDCYRAPCSESQEELALQHFMKEKLLAELEGKLRVFENIVAVLNKEVEASHLALATSIHQSQLDRERILSLEQRVVELQQTLAQKDQALGKLEQSLRLMEEASFDGTFLWKITNVTRRCHESACGRTVSLFSPAFYTAKYGYKLCLRLYLNGDGTGKRTHLSLFIVIMRGEYDALLPWPFRNKVTFMLLDQNNREHAIDAFRPDLSSASFQRPQSETNVASGCPLFFPLSKLQSPKHAYVKDDTMFLKCIVETST	barely detectable	25 fold	25 fold
TRAF2: TNF receptor associated factor 2, human adaptor protein expressed from pcDNA3 (protein, UniProt Q12933 1-501, looked up, full-length, TNF receptor associated factor 2, human adaptor protein expressed from pcDNA3) MAAASVTPPGSLELLQPGFSKTLLGTKLEAKYLCSACRNVLRRPFQAQCGHRYCSFCLASILSSGPQNCAACVHEGIYEEGISILESSSAFPDNAARREVESLPAVCPSDGCTWKGTLKEYESCHEGRCPLMLTECPACKGLVRLGEKERHLEHECPERSLSCRHCRAPCCGADVKAHHEVCPKFPLTCDGCGKKKIPREKFQDHVKTCGKCRVPCRFHAIGCLETVEGEKQQEHEVQWLREHLAMLLSSVLEAKPLLGDQSHAGSELLQRCESLEKKTATFENIVCVLNREVERVAMTAEACSRQHRLDQDKIEALSSKVQQLERSIGLKDLAMADLEQKVLEMEASTYDGVFIWKISDFARKRQEAVAGRIPAIFSPAFYTSRYGYKMCLRIYLNGDGTGRGTHLSLFFVVMKGPNDALLRWPFNQKVTLMLLDQNNREHVIDAFRPDVTSSSFQRPVNDMNIASGCPLFCPVSKMEAKNSYVRDDAIFIKAIVDLTGL	barely detectable	about 60 fold	about 60 fold
